pKd: −log10 of the molar value.
Target: S100B protein
Assay: tryptophan fluorescence quenching, S100B titrated into 5.0 µM peptide, 0.1 mM CaCl2, 12° C.

Sequence of S100B protein (P02638 2-92): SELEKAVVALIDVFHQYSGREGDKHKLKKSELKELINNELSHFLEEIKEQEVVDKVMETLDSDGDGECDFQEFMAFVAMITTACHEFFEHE

Substance: TRTK12 peptide
- pKd: 6.68

Reference: US9259432
